How the values were obtained:
[1] = target: T1, human GITR, membrane bound (on activated human T cells and on 3A9-hGITR cells) (human, UniProt Q9Y5U5 26-241); test: FACS blocking assay on GITR-3A9 cells with GITR-L, plotted as % inhibition. The table prints no unit, so ug/mL is taken from the axis 'Conc (ug/mL)'.
T1 construct: whole, on cells; the cell is named under assay; also called huGITR; TNFRSF18
T1 sequence (looked up): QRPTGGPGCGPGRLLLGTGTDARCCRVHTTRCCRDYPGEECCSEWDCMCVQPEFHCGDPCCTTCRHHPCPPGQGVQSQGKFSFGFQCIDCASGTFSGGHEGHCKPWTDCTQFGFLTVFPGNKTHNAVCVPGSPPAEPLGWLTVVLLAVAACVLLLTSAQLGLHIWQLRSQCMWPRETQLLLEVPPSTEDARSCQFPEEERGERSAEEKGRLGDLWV

[2] = target: T1, human GITR, membrane bound (on …); test: FACS blocking assay on GITR-3A9 cells: antibody titrated first, then GITR-L, bound GITR-L read as GMFI (PE). The table prints no unit, so ug/mL is taken from the axis 'Conc (ug/mL)'.
[3] = target: T2, cynomolgus GITR on activated cynomolgus T cells (cynomolgus, UniProt Q9Y5U5 26-241 (human entry)); test: FACS, activated cynomolgus T cells (anti-CD3/anti-CD28), PE anti-human IgG
T2 construct: also called cyno GITR
T2 chain: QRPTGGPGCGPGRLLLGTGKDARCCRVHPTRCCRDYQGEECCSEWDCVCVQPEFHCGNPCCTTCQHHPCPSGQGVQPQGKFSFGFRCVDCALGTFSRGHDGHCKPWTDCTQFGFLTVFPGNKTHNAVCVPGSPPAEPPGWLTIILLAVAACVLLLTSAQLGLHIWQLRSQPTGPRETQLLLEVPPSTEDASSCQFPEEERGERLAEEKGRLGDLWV
Protocol: (§1) Peripheral Blood Mononuclear Cells (PBMCs) isolated from human or cynomolgus monkey were activated with plate-coated anti-CD3 antibody (Clone: UCHT1 for human T cell activation; Clone: SP34 for cynomolgus T cell activation; both from BD Biosciences) and soluble anti-CD28 antibody (Clone:CD28.2 for both human and cynomolgus monkey, BD Biosciences) for 4 days (human)/or 5 days (cynomolgus monkey). The cells were tested for GITR mAb binding in a fluorescence-activated cell sorting (FACS)-based assay using a phycoerythrin (PE)-conjugated anti-human IgG antibody (Jackson ImmunoResearch). The samples were analyzed on a BD FACS Canto Flow Cytometer.

[4] = target: T1, human GITR, membrane bound (on …); test: FACS, activated human T cells (anti-CD3/anti-CD28), PE anti-human IgG
Protocol: as §1

[5] = target: T3, non-glycosylated N-terminal human GITR peptide consisting of SEQ ID NO: 215 (human); test: capture on 28F3 coated beads, LC-MS
T3 construct: Made by proteolysis of native GITR-mouse Fc and also by organic synthesis; also called N-terminal peptide without O-linked glycosylation
T3 peptide: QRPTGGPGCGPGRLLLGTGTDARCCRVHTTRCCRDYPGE
Protocol: The experiment was conducted as follows: Human GITR peptide fragments were generated by incubation of human GITR with Endoproteinase Arg-C, Endoproteinase Lys-C, Trypsin, Endoproteinase Glu-C or Endoproteinase Asp-N at a 2% w/w ratio at 37° C. in PBS for five hours without the presence of denaturing reagents. The peptide mixture was then incubated with anti-GITR Ab beads in PBS at room temperature for two hours. Some samples were subjected to in situ secondary cleavage by incubation with a different enzyme in PBS for an hour. Unbound peptides were removed by washing the anti-GITR Ab beads twice with PBS.

mouse GITR = target: T4, mouse GITR (mouse, UniProt O35714 20-228); test: stated in the Treg suppression assay with wildtype and huGITR knock-in mouse T cells
T4 construct: whole, on cells; also called muGITR
T4 sequence (looked up): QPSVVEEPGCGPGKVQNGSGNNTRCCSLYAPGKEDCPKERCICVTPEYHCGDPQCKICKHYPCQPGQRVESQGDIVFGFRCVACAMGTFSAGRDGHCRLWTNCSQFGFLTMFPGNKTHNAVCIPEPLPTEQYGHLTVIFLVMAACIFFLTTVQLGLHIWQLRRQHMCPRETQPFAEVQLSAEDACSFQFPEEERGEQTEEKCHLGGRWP

B1: 28F3 (antibody, human IgG2, kappa)
heavy: QVQLVESGGGVVQPGRSLRLSCAASGFTFSSYGMHWVRQAPGKGLEWVAVIWYEGSNKYYADSVKGRFTISRDNSKNTLYLQMNSLRAEDTAVYYCARGGSMVRGDYYYGMDVWGQGTTVTVSSASTKGPSVFPLAPCSRSTSESTAALGCLVKDYFPEPVTVSWNSGALTSGVHTFPAVLQSSGLYSLSSVVTVPSSNFGTQTYTCNVDHKPSNTKVDKTVERKCCVECPPCPAPPVAGPSVFLFPPKPKDTLMISRTPEVTCVVVDVSHEDPEVQFNWYVDGVEVHNAKTKPREEQFNSTFRVVSVLTVVHQDWLNGKEYKCKVSNKGLPAPIEKTISKTKGQPREPQVYTLPPSREEMTKNQVSLTCLVKGFYPSDIAVEWESNGQPENNYKTTPPMLDSDGSFFLYSKLTVDKSRWQQGNVFSCSVMHEALHNHYTQKSLSLSPGK
light: not shown
notes: Hybridoma-derived human antibody, IgG2 constant region; also called 13H2; 28F3 (IgG2)
[1]
  EC50: 0.278 µg/mL
[2]
  EC50: 0.278 µg/mL
[3]
  EC50: 1040 pM
[4]
  EC50: 192 pM
[5]
  binding result: binds
Mouse GITR
  binding result: no binding

Source: patent US20170145104A1 (Bristol-Myers Squibb, published 2017)
